Measured values reported in PMC4712133 (2016).
No end group written: not given here.

B1: secretory leukocyte peptidase inhibitor (SLPI), recombinant human (natural protein)
chain: SGKSFKAGVCPPKKSAQCLRYKKPECQSDWQCPGKKRCCPDTCGIKCLDPVDTPNPTRRKPGKCPVTYGQCLMLNPPNFCEMDGQCKRDLKCCMGMCGKSCVSPVKA
B2: midkine (natural protein)
chain: VAKKKDKVKKGGPGSECAEWAWGPCTPSSKDCGVGFREGTCGAQTQRIRCRVPCNWKKEFGADCKYKFENWGACDGGTGTKVRQGTLKKARYNAQCQETIRVTKPCTPKTKAKAKAKKGKGKD
B3: lactoferrin purified from human milk (natural protein)
chain: GRRRSVQWCAVSQPEATKCFQWQRNMRKVRGPPVSCIKRDSPIQCIQAIAENRADAVTLDGGFIYEAGLAPYKLRPVAAEVYGTERQPRTHYYAVAVVKKGGSFQLNELQGLKSCHTGLRRTAGWNVPIGTLRPFLNWTGPPEPIEAAVARFFSASCVPGADKGQFPNLCRLCAGTGENKCAFSSQEPYFSYSGAFKCLRDGAGDVAFIRESTVFEDLSDEAERDEYELLCPDNTRKPVDKFKDCHLARVPSHAVVARSVNGKEDAIWNLLRQAQEKFGKDKSPKFQLFGSPSGQKDLLFKDSAIGFSRVPPRIDSGLYLGSGYFTAIQNLRKSEEEVAARRARVVWCAVGEQELRKCNQWSGLSEGSVTCSSASTTEDCIALVLKGEADAMSLDGGYVYTAGKCGLVPVLAENYKSQQSSDPDPNCVDRPVEGYLAVAVVRRSDTSLTWNSVKGKKSCHTAVDRTAGWNIPMGLLFNQTGSCKFDEYFSQSCAPGSDPRSNLCALCIGDEQGENKCVPNSNERYYGYTGAFRCLAENAGDVAFVKDVTVLQNTDGNNNEAWAKDLKLADFALLCLDGKRKPVTEARSCHLAMAPNHAVVSRMDKVERLKQVLLHQQAKFGRNGSDCPDKFCLFQSETKNLLFNDNTECLARLHGKTTYEKYLGPQYVAGITNLKKCSTSPLLEACEFLRK

Assays:
[1] = target: T1, osteopontin (OPN), recombinant human (human, UniProt P10451 17-314); experiment: SPR
T1 sequence (P10451 17-314): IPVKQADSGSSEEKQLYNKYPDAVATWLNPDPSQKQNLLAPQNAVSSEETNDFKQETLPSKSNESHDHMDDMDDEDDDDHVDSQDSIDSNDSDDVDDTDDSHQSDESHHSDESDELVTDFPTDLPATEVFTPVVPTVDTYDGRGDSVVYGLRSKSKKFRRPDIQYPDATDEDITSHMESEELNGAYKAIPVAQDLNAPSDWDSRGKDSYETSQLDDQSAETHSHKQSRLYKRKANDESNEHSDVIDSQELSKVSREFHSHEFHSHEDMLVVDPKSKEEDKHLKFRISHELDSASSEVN

[2] = target: T1, osteopontin (OPN), recombinant human; experiment: SPR; remark: listed apart in the source

| Binder | koff [1] | Kd [2] |
| --- | --- | --- |
| B1 | 0.0016 s⁻¹ | 430 nM |
| B2 | – | 27 nM |
| B3 | 0.01 s⁻¹ | 2500 nM |
| GIINTLQKYYCRVRGGRCAVLSCLPKEEQIGKCSTRGRKCCRRKK (natural protein, ends and bridges not checked; cysteine pairing not given here) [human beta defensin-3 (hBD-3)] | 0.02 s⁻¹ | 790 nM |
